Experimental data as given in patent publication US20230085393A1.

What was measured:
[1] = biological target: ZIKV Dakar strain virus (African lineage), E2 antigen on virions (Zika virus)
[2] = biological target: ZIKV Brazil strain virus (Asian lineage), E2 antigen on virions (Zika virus)

Binder | IC50, RTCA cellular impedance neutralisation assay on Vero cells [1] [µg/mL] | IC50, RTCA cellular impedance neutralisation assay on Vero cells [2] [µg/mL]
ZIKV-120765-491 (antibody, V domains shown) VH: EVQLVESGGGLVQPGGSLRLSCAASGFTFIRYAMSWVRQAPGKGLEWVSDISGSGGSTFYADSVKGRFTISRDNSKNTLYLQMNSLRAEDTAVYYCARDDEGYTTNWYDAYDIWGQGTMVTVSS VL: DIQMTQSPSSLSASVGDRVTITCRASQSIGSYLNWYQQRPGKAPKLLIYTASSLQSGVPSRFSGSGSGTDFILTISSLQPEDFATYYCQQNYNIPQVTFGPGTKVDIK | < 0.1 | < 0.1
ZIKV-120764-350 (antibody, V domains shown) VH: DVQLVESGGGLIQPGGSLRLSCAASGFTARTNYMTWVRQAPGKGLEWVSVIYSGGSTIYADSVKGRFTISRDNAKNSLYLQMNSLRAEDTAVYYCARDRGYLDHWGQGTLVTVSS VL: EIVLTQSPATLSLSPGERATLSCRASQSVTNYFAWYQQRPGQAPRLLIYDVSNRATGIPARFSGSGSGTDFTLTISSLEPEDFAVYYCQQRSNWPYTFGQGTKVEIK | < 0.1 | < 0.1
